These results are taken from patent publication US20220281976A1.

Assay [1] addresses human CD33 (human) (UniProt P20138). The assay is described as follows: flow cytometry, human primary T cells. (In general: Flow cytometry measures light scatter and fluorescence of single cells or particles in a stream.)
Assay [2] has the same target. As to the kind of experiment: flow cytometry, human primary macrophages.
For assay [3] the target is unchanged. As to the kind of experiment: flow cytometry, human primary monocytes.
Assay [4] has the same target. The assay is described as follows: flow cytometry, human primary dendritic cells.

Chain of human CD33 (human) (P20138 18-364): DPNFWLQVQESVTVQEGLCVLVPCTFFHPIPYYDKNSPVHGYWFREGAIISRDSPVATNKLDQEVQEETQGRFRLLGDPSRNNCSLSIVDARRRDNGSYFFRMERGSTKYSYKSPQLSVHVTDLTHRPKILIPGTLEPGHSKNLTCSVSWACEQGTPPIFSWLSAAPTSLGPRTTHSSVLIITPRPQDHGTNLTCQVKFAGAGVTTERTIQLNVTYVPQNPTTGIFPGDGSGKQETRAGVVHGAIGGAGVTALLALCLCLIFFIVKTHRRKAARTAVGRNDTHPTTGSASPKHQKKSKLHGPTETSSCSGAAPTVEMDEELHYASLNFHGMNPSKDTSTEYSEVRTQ

isotype control antibody: the T cell MFI in assay [1] turned out to be 42.9. In addition, the Macrophage MFI in assay [2] was 451. This substance also registered a Monocyte MFI in assay [3] of 43.2. Besides, the DC MFI in assay [4] was found to be 178.
